Measurements published in article PMC4405707.

B1: GluA2i: N385D (protein)
parent chain: MQKIMHISVLLSPVLWGLIFGVSSNSIQIGGLFPRGADQEYSAFRVGMVQFSTSEFRLTPHIDNLEVANSFAVTNAFCSQFSRGVYAIFGFYDKKSVNTITSFCGTLHVSFITPSFPTDGTHPFVIQMRPDLKGALLSLIEYYQWDKFAYLYDSDRGLSTLQAVLDSAAEKKWQVTAINVGNINNDKKDETYRSLFQDLELKKERRVILDCERDKVNDIVDQVITIGKHVKGYHYIIANLGFTDGDLLKIQFGGANVSGFQIVDYDDSLVSKFIERWSTLEEKEYPGAHTATIKYTSALTYDAVQVMTEAFRNLRKQRIEISRRGNAGDCLANPAVPWGQGVEIERALKQVQVEGLSGNIKFDQNGKRINYTINIMELKTNGPRKIGYWSEVDKMVVTLTELPSGNDTSGLENKTVVVTTILESPYVMMKKNHEMLEGNERYEGYCVDLAAEIAKHCGFKYKLTIVGDGKYGARDADTKIWNGMVGELVYGKADIAIAPLTITLVREEVIDFSKPFMSLGISIMIKKPQKSKPGVFSFLDPLAYEIWMCIVFAYIGVSVVLFLVSRFSPYEWHTEEFEDGRETQSSESTNEFGIFNSLWFSLGAFMQQGCDISPRSLSGRIVGGVWWFFTLIIISSYTANLAAFLTVERMVSPIESAEDLSKQTEIAYGTLDSGSTKEFFRRSKIAVFDKMWTYMRSAEPSVFVRTTAEGVARVRKSKGKYAYLLESTMNEYIEQRKPCDTMKVGGNLDSKGYGIATPKGSSLGTPVNLAVLKLSEQGVLDKLKNKWWYDKGECGAKDSGSKEKTSALSLSNVAGVFYILVGGLGLAMLVALIEFCYKSRAEAKRMKVAKNPQNINPSSSQNSQNFATYKEGYNVYGIESVKI
B2: GluA2i: N392Q (protein)
parent chain: B1 parent chain

Columns and labels:
[1] = outside-out patch, 10 mM glutamate, τw,des; details: glycan lost; control: GluA2i WT + γ-2
[2] = outside-out patch, steady state-to-peak ratio; details: glycan lost; control: GluA2i WT + γ-2

Protein	other: channel desensitisation kinetics [1]	other: steady-state channel current [2]
B1	no change	increases
B2	no change	increases
